{"source": "paper PMC11564011", "about": "(Heliyon, 2024)", "binders": {"B1": {"name": "IMM2520 (bispecific antibody, V domains shown)", "VH": "QVQLVQSGAEVKKPGASVKVSCKASGYTFTSNWMHWVRQAPGQGLEWMGMIHPNSGSSNYNEKFKSRVTMTRDTSTSTVYMELSSLRSEDTAVYYCARSYYGSSPYYFDYWGQGTLVTVSS", "VL": "DIQMTQSPSSLSASVGDRVTITCRASQDIINYLNWYQQKPGKAPKLLIYYTSRLHSGVPSRFSGSGSGTDFTFTISSLQPEDIATYYCQQGDTLPWTFGQGTKVEIK"}}, "key": {"[1]": {"biological_target": "T1, PD-L1 on CD47+/PD-L1+ tumor cells (RKO, ES-2, HT-1080, HCC827) (human (endogenous in RKO, ES-2, …, UniProt Q9NZQ7))", "T1 sequence (Q9NZQ7 19-290)": "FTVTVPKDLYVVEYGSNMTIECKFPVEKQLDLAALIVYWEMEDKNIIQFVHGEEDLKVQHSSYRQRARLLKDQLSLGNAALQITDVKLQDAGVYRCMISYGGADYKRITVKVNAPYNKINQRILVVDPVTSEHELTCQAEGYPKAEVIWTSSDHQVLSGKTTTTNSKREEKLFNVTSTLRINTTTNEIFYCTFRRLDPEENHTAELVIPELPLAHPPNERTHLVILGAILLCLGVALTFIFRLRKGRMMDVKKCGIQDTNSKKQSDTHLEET", "assay": "flow cytometry on cells"}, "[2]": {"biological_target": "mFc-tag CD47 antigen (human) (UniProt Q08722)", "sequence (Q08722 19-323)": "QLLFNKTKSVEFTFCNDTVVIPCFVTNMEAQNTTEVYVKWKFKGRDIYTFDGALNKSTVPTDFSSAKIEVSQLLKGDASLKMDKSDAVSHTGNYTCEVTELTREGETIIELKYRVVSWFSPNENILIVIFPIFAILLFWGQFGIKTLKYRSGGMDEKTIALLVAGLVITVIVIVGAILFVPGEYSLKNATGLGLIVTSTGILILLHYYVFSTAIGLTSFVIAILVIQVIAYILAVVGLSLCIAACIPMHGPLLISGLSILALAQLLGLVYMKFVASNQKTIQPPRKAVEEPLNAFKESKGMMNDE", "assay": "BLI"}, "His-tag PD-L1 antigen [3]": {"biological_target": "T2, His-tag PD-L1 antigen (Homo sapiens, UniProt Q9NZQ7)", "T2 sequence (Q9NZQ7 19-238)": "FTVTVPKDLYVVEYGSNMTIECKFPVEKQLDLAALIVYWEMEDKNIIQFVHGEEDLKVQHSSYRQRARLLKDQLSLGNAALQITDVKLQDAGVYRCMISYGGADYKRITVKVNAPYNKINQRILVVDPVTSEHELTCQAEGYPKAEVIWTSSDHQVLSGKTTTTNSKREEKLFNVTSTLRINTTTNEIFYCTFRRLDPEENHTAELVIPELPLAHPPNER", "assay": "ELISA"}, "[4]": {"biological_target": "mFc-tag CD47 antigen (human) (UniProt Q08722)", "assay": "ELISA"}, "[5]": {"biological_target": "T1, PD-L1 on CD47+/PD-L1+ tumor cells (RKO, …)", "assay": "flow cytometry on cells", "remark": "listed apart in the source"}, "His-tag PD-L1 antigen [6]": {"biological_target": "T2, His-tag PD-L1 antigen", "assay": "BLI"}, "PD-L1 on CHO-PD-L1 cells [7]": {"biological_target": "T3, PD-L1 on CHO-PD-L1 cells (human, UniProt Q9NZQ7)", "T3 sequence (Q9NZQ7 19-290)": "as the sequence (Q9NZQ7 19-290) above", "assay": "flow cytometry on cells"}, "PD-L1 on CHO-PD-L1 cells [8]": {"biological_target": "T3, PD-L1 on CHO-PD-L1 cells", "assay": "flow cytometry on cells", "remark": "listed apart in the source"}}}
{"binder": "B1", "values": [{"measurement": "EC50", "setting": "[1]", "result": 0.145, "unit": "nM"}, {"measurement": "Kd", "setting": "[2]", "result": 2.49, "unit": "nM"}, {"measurement": "EC50", "setting": "His-tag PD-L1 antigen [3]", "result": 0.456, "unit": "nM"}, {"measurement": "EC50", "setting": "[4]", "result": 0.079, "unit": "nM"}, {"measurement": "IC50", "setting": "[5]", "result": 0.0123, "unit": "nM"}, {"measurement": "Kd", "setting": "His-tag PD-L1 antigen [6]", "result": 0.576, "unit": "nM"}, {"measurement": "IC50", "setting": "PD-L1 on CHO-PD-L1 cells [7]", "result": 0.121, "unit": "nM"}, {"measurement": "EC50", "setting": "PD-L1 on CHO-PD-L1 cells [8]", "result": 0.845, "unit": "nM"}]}
